By Ki is commonly meant the equilibrium dissociation constant of an inhibitor or competing ligand from its target. A high value points to lower affinity.

The record followed here is patent publication US7582460B2 (Wacker Chemie AG, priority 2003, dated 2009).

In assay [1] the test system is 3-phosphoglycerate dehydrogenase (PGD). Nature of the assay: PGD enzyme activity in crude extracts (McKitrick and Pizer test). The settings on record: crude extract of strain expressing plasmid-encoded serA allele; backward reaction, NADH oxidation at 340 nm. Format: biochemical, Escherichia coli. From the text: (§1) For example, the PGD activity can be determined in analogy with the method described by McKitrick and Pizer (1980, J. Bacteriol. 141:235-245). The backward reaction is used to measure the enzyme activity in an assay sample which contains phosphohydroxypyruvate and NADH/H^+. The reaction is started by adding enzyme and is monitored in a spectrophotometer by way of the decrease in extinction at 340 nm which is caused by oxidation of the NADH/H^+.
(§2) At an optical density of 1.0, serA expression was in each case induced by adding 0.4 mM […] and the culture was incubated for a further 3 hours. The cells were subsequently harvested by centrifugation, washed and resuspended in 2 ml of buffer (100 mM K-phosphate, pH 7.0; 10 mM MgCl2; 1 mM dithiothreitol). The cells were disrupted using a French press (Spectronic Instruments, Inc. Rochester, N.Y., USA) at a pressure of 18 000 psi. The crude extracts were clarified by centrifugation at 30 000 g and PGD activity was determined using the McKitrick and Pizer test (1980, J. Bacteriol. 141:235-245).

For assay [2], the target named is 3-phosphoglycerate dehydrogenase (PGD). Put plainly: Inhibition of PGD activity by L-serine, inhibitor constant Ki. Format: biochemical, Escherichia coli. The settings on record: Ki = inhibitor concentration at which activity is 50% of activity without inhibitor.
From the text: as §1, §2

B1: serA49: E. coli PGD variant with replacement G349P (protein, UniProt P0A9T0 2-410, looked up, variant G349P)
D-3-phosphoglycerate …: AKVSLEKDKIKFLLVEGVHQKALESLRAAGYTNIEFHKGALDDEQLKESIRDAHFIGLRSRTHLTEDVINAAEKLVAIGCFCIGTNQVDLDAAAKRGIPVFNAPFSNTRSVAELVIGELLLLLRGVPEANAKAHRGVWNKLAAGSFEARGKKLGIIGYGHIGTQLGILAESLGMYVYFYDIENKLPLGNATQVQHLSDLLNMSDVVSLHVPENPSTKNMMGAKEISLMKPGSLLINASRGTVVDIPALCDALASKHLAGAAIDVFPTEPATNSDPFTSPLCEFDNVLLTPHIGGSTQEAQENIGLEVAGKLIKYSDNGSTLSAVNFPEVSLPLHGGRRLMHIHENRPPVLTALNKIFAEQGVNIAAQYLQTSAQMGYVVIDIEADEDVAEKALQAMKAIPGTIRARLLY
For the molecule B1, in assay [1], the Activity is given as 0.05 units/mg. In addition, in assay [2], the Ki worked out at 6 mM.

B2: serA223: E. coli PGD variant with replacement T372E (protein, UniProt P0A9T0 2-410, looked up, variant T372E)
D-3-phosphoglycerate …: AKVSLEKDKIKFLLVEGVHQKALESLRAAGYTNIEFHKGALDDEQLKESIRDAHFIGLRSRTHLTEDVINAAEKLVAIGCFCIGTNQVDLDAAAKRGIPVFNAPFSNTRSVAELVIGELLLLLRGVPEANAKAHRGVWNKLAAGSFEARGKKLGIIGYGHIGTQLGILAESLGMYVYFYDIENKLPLGNATQVQHLSDLLNMSDVVSLHVPENPSTKNMMGAKEISLMKPGSLLINASRGTVVDIPALCDALASKHLAGAAIDVFPTEPATNSDPFTSPLCEFDNVLLTPHIGGSTQEAQENIGLEVAGKLIKYSDNGSTLSAVNFPEVSLPLHGGRRLMHIHENRPGVLTALNKIFAEQGVNIAAQYLQESAQMGYVVIDIEADEDVAEKALQAMKAIPGTIRARLLY
Regarding B2, the Activity in assay [1] was 0.04 units/mg.

B3: serA206: E. coli PGD variant with replacement T372P (protein, UniProt P0A9T0 2-410, looked up, variant T372P)
D-3-phosphoglycerate …: AKVSLEKDKIKFLLVEGVHQKALESLRAAGYTNIEFHKGALDDEQLKESIRDAHFIGLRSRTHLTEDVINAAEKLVAIGCFCIGTNQVDLDAAAKRGIPVFNAPFSNTRSVAELVIGELLLLLRGVPEANAKAHRGVWNKLAAGSFEARGKKLGIIGYGHIGTQLGILAESLGMYVYFYDIENKLPLGNATQVQHLSDLLNMSDVVSLHVPENPSTKNMMGAKEISLMKPGSLLINASRGTVVDIPALCDALASKHLAGAAIDVFPTEPATNSDPFTSPLCEFDNVLLTPHIGGSTQEAQENIGLEVAGKLIKYSDNGSTLSAVNFPEVSLPLHGGRRLMHIHENRPGVLTALNKIFAEQGVNIAAQYLQPSAQMGYVVIDIEADEDVAEKALQAMKAIPGTIRARLLY
In assay [1], B3 registered an Activity of 0.05 units/mg.

B4: serA415: E. coli PGD variant with replacement G349K (protein, UniProt P0A9T0 2-410, looked up, variant G349K)
D-3-phosphoglycerate …: AKVSLEKDKIKFLLVEGVHQKALESLRAAGYTNIEFHKGALDDEQLKESIRDAHFIGLRSRTHLTEDVINAAEKLVAIGCFCIGTNQVDLDAAAKRGIPVFNAPFSNTRSVAELVIGELLLLLRGVPEANAKAHRGVWNKLAAGSFEARGKKLGIIGYGHIGTQLGILAESLGMYVYFYDIENKLPLGNATQVQHLSDLLNMSDVVSLHVPENPSTKNMMGAKEISLMKPGSLLINASRGTVVDIPALCDALASKHLAGAAIDVFPTEPATNSDPFTSPLCEFDNVLLTPHIGGSTQEAQENIGLEVAGKLIKYSDNGSTLSAVNFPEVSLPLHGGRRLMHIHENRPKVLTALNKIFAEQGVNIAAQYLQTSAQMGYVVIDIEADEDVAEKALQAMKAIPGTIRARLLY
In assay [1], B4 had an Activity of 0.03 units/mg. The Ki in assay [2] came to 15 mM.

B5: serA234: E. coli PGD variant with replacement T372K (protein, UniProt P0A9T0 2-410, looked up, variant T372K)
D-3-phosphoglycerate …: AKVSLEKDKIKFLLVEGVHQKALESLRAAGYTNIEFHKGALDDEQLKESIRDAHFIGLRSRTHLTEDVINAAEKLVAIGCFCIGTNQVDLDAAAKRGIPVFNAPFSNTRSVAELVIGELLLLLRGVPEANAKAHRGVWNKLAAGSFEARGKKLGIIGYGHIGTQLGILAESLGMYVYFYDIENKLPLGNATQVQHLSDLLNMSDVVSLHVPENPSTKNMMGAKEISLMKPGSLLINASRGTVVDIPALCDALASKHLAGAAIDVFPTEPATNSDPFTSPLCEFDNVLLTPHIGGSTQEAQENIGLEVAGKLIKYSDNGSTLSAVNFPEVSLPLHGGRRLMHIHENRPGVLTALNKIFAEQGVNIAAQYLQKSAQMGYVVIDIEADEDVAEKALQAMKAIPGTIRARLLY
In the case of B5, the Activity in assay [1] is recorded as 0.05 units/mg.

B6: serA21: E. coli PGD variant with replacement T372D (protein, UniProt P0A9T0 2-410, looked up, variant T372D)
D-3-phosphoglycerate …: AKVSLEKDKIKFLLVEGVHQKALESLRAAGYTNIEFHKGALDDEQLKESIRDAHFIGLRSRTHLTEDVINAAEKLVAIGCFCIGTNQVDLDAAAKRGIPVFNAPFSNTRSVAELVIGELLLLLRGVPEANAKAHRGVWNKLAAGSFEARGKKLGIIGYGHIGTQLGILAESLGMYVYFYDIENKLPLGNATQVQHLSDLLNMSDVVSLHVPENPSTKNMMGAKEISLMKPGSLLINASRGTVVDIPALCDALASKHLAGAAIDVFPTEPATNSDPFTSPLCEFDNVLLTPHIGGSTQEAQENIGLEVAGKLIKYSDNGSTLSAVNFPEVSLPLHGGRRLMHIHENRPGVLTALNKIFAEQGVNIAAQYLQDSAQMGYVVIDIEADEDVAEKALQAMKAIPGTIRARLLY
Take B6: in assay [1], the Activity worked out at 0.05 units/mg.

B7: serA414: E. coli PGD variant with replacement G349A (protein, UniProt P0A9T0 2-410, looked up, variant G349A)
D-3-phosphoglycerate …: AKVSLEKDKIKFLLVEGVHQKALESLRAAGYTNIEFHKGALDDEQLKESIRDAHFIGLRSRTHLTEDVINAAEKLVAIGCFCIGTNQVDLDAAAKRGIPVFNAPFSNTRSVAELVIGELLLLLRGVPEANAKAHRGVWNKLAAGSFEARGKKLGIIGYGHIGTQLGILAESLGMYVYFYDIENKLPLGNATQVQHLSDLLNMSDVVSLHVPENPSTKNMMGAKEISLMKPGSLLINASRGTVVDIPALCDALASKHLAGAAIDVFPTEPATNSDPFTSPLCEFDNVLLTPHIGGSTQEAQENIGLEVAGKLIKYSDNGSTLSAVNFPEVSLPLHGGRRLMHIHENRPAVLTALNKIFAEQGVNIAAQYLQTSAQMGYVVIDIEADEDVAEKALQAMKAIPGTIRARLLY
In turn, B7 returned an Activity in assay [1] of 0.05 units/mg. The same molecule showed a Ki in assay [2] of 1 mM.

B8: serA410: E. coli PGD variant with replacement G349S (protein, UniProt P0A9T0 2-410, looked up, variant G349S)
D-3-phosphoglycerate …: AKVSLEKDKIKFLLVEGVHQKALESLRAAGYTNIEFHKGALDDEQLKESIRDAHFIGLRSRTHLTEDVINAAEKLVAIGCFCIGTNQVDLDAAAKRGIPVFNAPFSNTRSVAELVIGELLLLLRGVPEANAKAHRGVWNKLAAGSFEARGKKLGIIGYGHIGTQLGILAESLGMYVYFYDIENKLPLGNATQVQHLSDLLNMSDVVSLHVPENPSTKNMMGAKEISLMKPGSLLINASRGTVVDIPALCDALASKHLAGAAIDVFPTEPATNSDPFTSPLCEFDNVLLTPHIGGSTQEAQENIGLEVAGKLIKYSDNGSTLSAVNFPEVSLPLHGGRRLMHIHENRPSVLTALNKIFAEQGVNIAAQYLQTSAQMGYVVIDIEADEDVAEKALQAMKAIPGTIRARLLY
B8 registered an Activity in assay [1] of 0.04 units/mg. This molecule also displayed a Ki in assay [2] of 2 mM.

B9: serA229: E. coli PGD variant with replacement T372R (protein, UniProt P0A9T0 2-410, looked up, variant T372R)
D-3-phosphoglycerate …: AKVSLEKDKIKFLLVEGVHQKALESLRAAGYTNIEFHKGALDDEQLKESIRDAHFIGLRSRTHLTEDVINAAEKLVAIGCFCIGTNQVDLDAAAKRGIPVFNAPFSNTRSVAELVIGELLLLLRGVPEANAKAHRGVWNKLAAGSFEARGKKLGIIGYGHIGTQLGILAESLGMYVYFYDIENKLPLGNATQVQHLSDLLNMSDVVSLHVPENPSTKNMMGAKEISLMKPGSLLINASRGTVVDIPALCDALASKHLAGAAIDVFPTEPATNSDPFTSPLCEFDNVLLTPHIGGSTQEAQENIGLEVAGKLIKYSDNGSTLSAVNFPEVSLPLHGGRRLMHIHENRPGVLTALNKIFAEQGVNIAAQYLQRSAQMGYVVIDIEADEDVAEKALQAMKAIPGTIRARLLY
Take B9: in assay [1], the Activity came out at 0.04 units/mg.

B10: serA412: E. coli PGD variant with replacement G349V (protein, UniProt P0A9T0 2-410, looked up, variant G349V)
D-3-phosphoglycerate …: AKVSLEKDKIKFLLVEGVHQKALESLRAAGYTNIEFHKGALDDEQLKESIRDAHFIGLRSRTHLTEDVINAAEKLVAIGCFCIGTNQVDLDAAAKRGIPVFNAPFSNTRSVAELVIGELLLLLRGVPEANAKAHRGVWNKLAAGSFEARGKKLGIIGYGHIGTQLGILAESLGMYVYFYDIENKLPLGNATQVQHLSDLLNMSDVVSLHVPENPSTKNMMGAKEISLMKPGSLLINASRGTVVDIPALCDALASKHLAGAAIDVFPTEPATNSDPFTSPLCEFDNVLLTPHIGGSTQEAQENIGLEVAGKLIKYSDNGSTLSAVNFPEVSLPLHGGRRLMHIHENRPVVLTALNKIFAEQGVNIAAQYLQTSAQMGYVVIDIEADEDVAEKALQAMKAIPGTIRARLLY
As to B10, the Activity in assay [1] is listed as 0.05 units/mg. The same molecule returned a Ki in assay [2] of 5 mM.

B11: serA411: E. coli PGD variant with replacement G349T (protein, UniProt P0A9T0 2-410, looked up, variant G349T)
D-3-phosphoglycerate …: AKVSLEKDKIKFLLVEGVHQKALESLRAAGYTNIEFHKGALDDEQLKESIRDAHFIGLRSRTHLTEDVINAAEKLVAIGCFCIGTNQVDLDAAAKRGIPVFNAPFSNTRSVAELVIGELLLLLRGVPEANAKAHRGVWNKLAAGSFEARGKKLGIIGYGHIGTQLGILAESLGMYVYFYDIENKLPLGNATQVQHLSDLLNMSDVVSLHVPENPSTKNMMGAKEISLMKPGSLLINASRGTVVDIPALCDALASKHLAGAAIDVFPTEPATNSDPFTSPLCEFDNVLLTPHIGGSTQEAQENIGLEVAGKLIKYSDNGSTLSAVNFPEVSLPLHGGRRLMHIHENRPTVLTALNKIFAEQGVNIAAQYLQTSAQMGYVVIDIEADEDVAEKALQAMKAIPGTIRARLLY
As to B11, the Activity in assay [1] is 0.04 units/mg. For the same molecule, in assay [2], the Ki was determined as 3 mM.
